# B1: TPR t1 (parent)
# chain: GACCAAUCUGCCCUCAGAGCUCGAGAACAUCUUCGGAUGCAGAGGAGGCAGGCUUCGGUGGCGCGAUAGCGCCAACGUCCUCAACCUCCAAUGCAUCCCACCACAUGAUGAUGCCUGAAGAGCCUUGGUUUUUUG
# Variants of: B1
# Experiment: polymerase ribozyme fitness, log enrichment relative to wild type (log ratio); higher = more active; in vitro selection for triplet polymerase activity
# Method in brief: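 Genotype fitness is the logarithm of its enrichment divided by wild-type enrichment, using inverse-variance-weighted averages of replicates. That logarithm is base 2. Enrichment was measured by Illumina sequencing of input and output libraries from one triplicate in vitro selection round, with frozen incubation at −7 °C, on PCR-built, transcribed mutant libraries of each subunit of a heterodimeric triplet polymerase ribozyme, retaining genotypes with ≥10 input reads and ≥1 read per output.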
row,Variant,polymerase ribozyme fitness (log ratio)
1,GACCAAUCUGCCCUCAGAGCUCGAGAACAUCUUCGGAUGCAGAGGAGGCAGGGUUCGGUGGCGCGAUAGCGCCAACGUCCUCAACCUCCAAUGCAUCCCACCACAUGAUGAGCCCUGAAGAGCCUUGGUUUUUUG,-5.93
2,GACCAAUCUGCCCUCAGAGCUCGAGAACAUCUUCGGAUGCAGAGGAGGCAGGUUUCGGUGGUGCGAUAGCGCCAACGUCCUCAACCUCCAAUGCAUCCCACCACACGAUGAUGCCUUAAGAGCCUUGGUUUUUUG,-4.61
3,GACCAAUCUGCCCUCAGAGCUCGAGAACAUCUUCGGAUGCAGAGGAGGCAGGGUUCGGUGGCGCGAUAGCGCCAACGUCCUCAACCUCCAAUGCAUCCCACCACAUGAUGAUGCCUGAAGAGCCCUGGUUUUUUG,-2.29
4,GACCAAUCUGCCCUCAGAGCUCGAGAACAUCUUCGGAUGCAGAGGAGGCAGGUUUCGGUGGUGCGAUAGCGCCAACGUCCUCAACCUCCAAUGCCUCCCACCACAUGAUGAUGCCUGAAGAGCCUUGGUUUUUUG,-1.08
5,GACCAAUCUGCCCUCAGAGCUCGAGAACAUCUUCGGAUGCAGAGGAGGCAGGUUUGGGUGGCGCGAUAGCGCCAACGUCCUCAACCUCCAAUGCAUCCCACCACAUGAUGAUGCCAGAACAGCCUUGGUUUUGUG,-1.3
6,GACCAAUCUGCCCUCAGAGCUCGAGAACAUCUUCGGAUGCAGAGGAGGCAGGGUUCGGUGGCGCGAUAGCGCCAACGUCCUCAACCUCCAAUGCAUCCCACCACAUGAUGAUGCCUGAAGAGCCUUGCUUUUUUG,-2.03
7,GACCAAUCUGCCCUCAGAGCUCGAGAACAUCUUCGGAUGCAGAGGAGGCAGGUUUCGGUGGCGCGAUAGCGCCAACGUCCUCAACCUCCAAUGCAUCCCACCACAUGAUGGUGCCUGAAGAGCCUUGGUUUUUUG,0.578
8,GACCAAUCUGCCCUCAGAGCUCGAGAACAUCUUCGGAUGCAGAGGAGGCAGGGUUCGGUGGCGCGAUAGCGCCAACGUCCGCAACCUCCAAUGCAUCCCACCACAUGAUGAUGCCUGAAGAGCCUUGGUUUUUUG,-1.16
9,GACCAAUCUGCCCUCAGAGCUCGAGAACAUCUUCGGAUGCAGAGGAGGCAGGGUUCGGUGGCGCGAUAGCGCCAACGUCCUCAACCUCCAAUGCAUCCCACCACAUGAUGAGGACUGAAGAGCCUUGGUUUUUUU,-5.63
10,GACCAAUCUGCCCUCAGAGCUCGAGAACAUCUUCGGAUGCAGAGGAGGCAGGGUUCGGUGGCGCGAUAGCGCCAACGUCCUCAACCUCCAAUGCACCCCACCACAAGAUGAUGCCUGAGGAGCCUUGGUUUUAUG,1.61
11,GACCAAUCUGCCCUCAGAGCUCGAGAACAUCUUCGGAUGCAGAGGAGGCAGGGUUCGGUGGCGCGAUAGCGCCAACGUCCUCAACCUCCAAUGCAUCCCACCACAUGAUGACGCCUGAAGAGCUUUGGUUUUUUG,1.27
12,GACCAAUCUGCCCUCAGAGCUCGAGAACAUCUUCGGAUGCAGAGGAGGCAGGUUUCGGUGGCGCGAUAGCGCCUACGUCCCCAACCUCCAAUGCAUCCCACCACAUGAUGAUGCCUGAAAAGCCUUGGUUUUUUG,-1.15
13,GACCAAUCUGCCCUCAGAGCUCGAGAACAUCUUCGGAUGCAGAGGAGGCAGGGUUCGGUGGCGCGAUAGCGCCAACGUCCUCAACCGCCAAUGCAUCCCACCACAUGAUGAUGCCUGAAGAGCCUUGGUUUUUUG,-0.632
14,GACCAAUCUGCCCUCAGAGCUCGAGAACAUCUUCGGAUGCAGAGGAGGCAGGUUUCGGUGGCGCGAUAGCGCCAACGUCCUCAACCUCCCAUGCAGCCCACCACAUGAUGAUGCCUGUAGAGCCUUGGUUUUUUG,-1.37
15,GACCAAUCUGCCCUCAGAGCUCGAGAACAUCUUCGGAUGCAGAGGAGGCAGGGUUCGGUGGCGCGAUAGCGCCAACGUCCUCAACCUCCAAUGCAUCCCACCACAUGAUGAUGCCAGAAGAGCCUUGGUUUUUUG,-2.67
16,GACCAAUCUGCCCUCAGAGCUCGAGAACAUCUUCGGAUGCAGAGGAGGCAGGUUUCGGUGGCGCGAUAGCGCCAACGUCCUCAACCUCCCAUGCAUCCCACCAAAUGAUGAUGCCUGAAGGGACUUGGUUUUUUG,-2.12
17,GACCAAUCUGCCCUCAGAGCUCGAGAACAUCUUCGGAUGCAGAGGAGGCAGGGUUCGGUGGCGCGAUAGCGCCAACGUCCCCAACCUCCAAUGCAUCCCACCACAAGAUGAUGCCUGAAGAGCCUUGGUUUUUUG,-4.71
18,GACCAAUCUGCCCUCAGAGCUCGAGAACAUCUUCGGAUGCAGAGGAGGCAGGUUUCGGUGGCGCGAUAGCGCCAACGUCCUCAUCCUCCAAUGCAUCCCACCACAUGAUGAUGCCUGAAGAGCCUCGGUUUUUUG,-1.72
19,GACCAAUCUGCCCUCAGAGCUCGAGAACAUCUUCGGAUGCAGAGGAGGCAGGGUUCGGUGGCGCGAUAGCGCCAACGUCCUCAACCUCCAAUGCAUCCCACCACAUGAUAAUGCCUGAAGAGCCUUGGUUUUUUG,-1.16
20,GACCAAUCUGCCCUCAGAGCUCGAGAACAUCUUCGGAUGCAGAGGAGGCAGGGUUCGGUGGCGCGAUAGCGCCAACGCCCUCAACCUCCAAUGCAUCCCACCACAUGAUGAUGUCUGAAGAGCCUUGGUUUAUUG,-2.19
21,GACCAAUCUGCCCUCAGAGCUCGAGAACAUCUUCGGAUGCAGAGGAGGCAGGGUUCGGUGGCGCGAUAGCGCCAACGUCCUCAACCUCCAAUGCAUCCCACCACAUGAUGAUGCCUGAAGAGCCUUGGUUGUUUG,-1.07
